For orientation: Kd means the concentration at which binding is half-saturated.

Among the data in article PMC3731240 are Kd values, retold here.

Common to all, as to assay: SPR
Background: SPR reads the build-up and loss of mass on a sensor chip optically.

Test [1] addresses Ghfp^M4 (R288H) (Neisseria gonorrhoeae strain FA1090).
The target of test [2] is Ghfp^M4–5 (R288H and D318G) (Neisseria gonorrhoeae strain FA1090).
Test [3] concerns the target factor H binding protein (fHbp) V3.45, recombinant, wild type (Neisseria meningitidis) (UniProt E6MV22).

Take “complement control protein (CCP) domains 6 and 7 of fH (fH6–7) (domain or fragment)”: the results for the Kd in test [1], in test [2] and in test [3] were 16 nM, 2 nM and 1 nM, respectively.
